Experimental data reported in US9707281B2, “Pharmaceutical compositions and methods for digesting atherosclerotic plaques” (Northwestern University, priority 2010, dated 2017).

System: Human arterial plaque samples
Experiment: in vitro dissolution and digestion of atherosclerotic plaque specimens (percent reduction of plaque weight)
Settings: EDTA 0.5-2 mg/ml, β-cyclodextrin 1-100 mMol, tPA 0.5-2 mg/ml, p<0.05
Method: Atherosclerotic plaques from surgical endarterectomies were obtained from various anatomic sites. All experiments were performed by cutting a given plaque into equal parts by weight then exposing them to various agents alone and in combination to determine the most optimal digestion solution. The optimal concentration and conditions for plaque dissolution and digestion were determined for ethylenediaminetetraacetic acid (EDTA), β-cyclodextrin, tPA, collagenase type I, III, IV, and V. Weights of each specimen were obtained prior to exposure of each solution and at different time points to determine percent of digested versus undigested plaque. Additional variables that were assessed and optimized include: 1) different combinations of EDTA, β-cyclodextrin, and the collagenases, 2) temperature, 3) pH, and 4) agitation.
Atherosclerotic plaques were obtained from patients undergoing endarterectomies. The optimal concentration and conditions for plaque dissolution and digestion were determined for ethylenediaminetetraacetic acid (EDTA), β-cyclodextrin, and collagenase type I, III, IV, and V. Variables that were assessed included: 1) combination of different agents, 2) time, 3) temperature, 4) pH, and 5) agitation. Weight of each specimen was measured at different time points to determine percent of undigested plaque. […]

B1: tPA: tissue plasminogen activator (protein, UniProt P00750 36-562, looked up)
Tissue-type plasminogen …: SYQVICRDEKTQMIYQQHQSWLRPVLRSNRVEYCWCNSGRAQCHSVPVKSCSEPRCFNGGTCQQALYFSDFVCQCPEGFAGKCCEIDTRATCYEDQGISYRGTWSTAESGAECTNWNSSALAQKPYSGRRPDAIRLGLGNHNYCRNPDRDSKPWCYVFKAGKYSSEFCSTPACSEGNSDCYFGNGSAYRGTHSLTESGASCLPWNSMILIGKVYTAQNPSAQALGLGKHNYCRNPDGDAKPWCHVLKNRRLTWEYCDVPSCSTCGLRQYSQPQFRIKGGLFADIASHPWQAAIFAKHRRSPGERFLCGGILISSCWILSAAHCFQERFPPHHLTVILGRTYRVVPGEEEQKFEVEKYIVHKEFDDDTYDNDIALLQLKSDSSRCAQESSVVRTVCLPPADLQLPDWTECELSGYGKHEALSPFYSERLKEAHVRLYPSSRCTSQHLLNRTVTDNMLCAGDTRSGGPQANLHDACQGDSGGPLVCLNDGRMTLVGIISWGLGCGQKDVPGVYTKVTNYLDWIRDNMRP
reduction in plaque weight, agent alone: 20%
